Test results taken from patent publication US20130122545A1.

T1: Suc(OMe)-AAPV-MCA
T1 chain: AAPV

T2: Z-LLE-MCA
T2 chain: LLE

T3: Boc-FSR-MCA
T3 chain: FSR

T4: Suc-LLVY-MCA
T4 chain: LLVY

T5: Glt-AAF-MCA
T5 chain: AAF

B1: Aspergillus niger 19 kDa protease (protein)
chain: SPIPSYSRPGRGQHFQDAYGFAEACIAGDRMEIAGQTGMSPTSTEVPPTLEEEVAQAFNNINEVILYTLEKAKPDLRASVKSGWDRVVKIRTYHVQLPQTREKIIGLMVENVKKWCPDHQPTWTMLGIEALPFEGQNLEIEVDVFLG

Key:
[1] = biological target: Aspergillus niger 19 kDa protease (Aspergillus niger); test: cell-based or functional assay
Suc(OMe)-AAPV-MCA = biological target: T1, Suc(OMe)-AAPV-MCA
Z-LLE-MCA = biological target: T2, Z-LLE-MCA
Boc-FSR-MCA = biological target: T3, Boc-FSR-MCA
Suc-LLVY-MCA = biological target: T4, Suc-LLVY-MCA
Glt-AAF-MCA = biological target: T5, Glt-AAF-MCA

Molecule | residual activity (%) [1] | substrate specificity: increase of fluorescent strength, relative (column has no head) (Suc(OMe)-AAPV-MCA) | substrate specificity: increase of fluorescent strength, relative (column has no head) (Z-LLE-MCA) | substrate specificity: increase of fluorescent strength, relative (column has no head) (Boc-FSR-MCA) | substrate specificity: increase of fluorescent strength, relative (column has no head) (Suc-LLVY-MCA) | substrate specificity: increase of fluorescent strength, relative (column has no head) (Glt-AAF-MCA)
leupeptin (peptide) | 89% | – | – | – | – | –
pepstatin A (peptide) | 91% | – | – | – | – | –
B1 | – | 0.2% | 0.1% | 0.3% | 100.0% | 1.6%
